Laboratory results reported in publication PMC5673899, “Structural basis for receptor recognition of pollen tube attraction peptides” (Nature Communications, 2017).
Entries after “also recorded” stand apart in the source; their conditions may differ.

Experiments:
[1] = test system: prk6 pollen tubes transformed with PRK6 D234A; assay: Wavy assay, prk6 pollen tubes transformed with D234A PRK6; type: cell-based, Arabidopsis; conditions: 250 nM wild-type AtLURE1.2 in medium
Procedure: (§1) Attraction activities of mutant AtLURE1.2 peptides were examined for semi-in-vivo pollen tubes growing through cut, pollinated pistils by gelatin-beads assay and wavy assay, [20]. For the gelatin-beads assay, pollen tubes were grown on solid pollen germination medium poured into a mold made with 1-mm thick silicone rubber and cover glasses. After hand-pollination, the topside cover glass was removed and the medium was covered with hydrated silicone oil (KF-96–100CS; Shin-Etsu). Attraction of pollen tubes toward the peptide was evaluated using AtLURE1 peptide containing gelatine beads under an inverted microscope (IX71, Olympus) equipped with a micro-manipulator (Narishige). For the AtLURE1-responsive wavy assay, the purified AtLURE1.2 peptide was added to solid pollen germination medium, which was melted at 70 °C and then cooled to a certain degree. The mixture was mixed by vortexing and poured into the mold. Pollen tubes of each genotype were grown through cut styles, as mentioned above. Each peptide (25 μM in 10 mM Bis-Tris (pH 6.0) and 100 mM NaCl) was diluted to 250 nM by cultivation medium in both assays. […]
(§2) pollen tubes. Fluorescence is from mRuby2 fused to the C-terminal of PRK6 receptors, showing that all of mutant PRK6 receptors localize normally to the plasma membrane of the pollen tube tip. […]

[2] = test system: prk6 knockout pollen tubes; conditions: cited from earlier work
From the text: (§3) The DEFL peptide SCR9 that is involved in self-recognition in self-incompatibility induces homodimerization of its receptor SRK9 (ref. [34]).

[3] = test system: prk3 deletion pollen tubes; conditions: cited from earlier work
From the text: as §3

[4] = molecular target: AtPRK6^LRR; assay: ITC, AtLURE1.2 titrated into AtPRK6^LRR; set-up: species or system Arabidopsis thaliana; conditions: MicroCalorimeter ITC200, 25 °C, 200 mM HEPES pH 7.0, 100 mM NaCl, ~0.9 mM AtLURE1.2 into 0.08 mM AtPRK6^LRR, 20 × 2 μl at 2.5-min intervals, insect cell proteins, read-out: dissociation constant / binding affinity
From the text: The genes of AtPRK3 ^LRR (residues 1–241), AtPRK4 ^LRR (residues 1–277), AtPRK5 ^LRR (residues 1–279), AtPRK6 ^LRR (residues 1–262), MIK1 ^LRR (residues 1–633), MIK2 ^LRR (residues 1–707) were amplified from Arabidopsis cDNA library by PCR and cloned into pFastBac-1 vector with a C-terminal 6 × His-tag. Their identities were confirmed by sequencing. The mature form of AtLURE1.1 (residues 20–94), AtLURE1.2 (residues 20–90), AtLURE1.3 (residues 21–91), and AtLURE1.4 (residues 20–90) were cloned into pFastBac-1 vector, with a modified N-terminal hemolin signal peptide and 6 × His-SUMO tag. Point mutation constructs were generated by QuickChange Site-Directed Mutagenesis Kit (Strategene). All the proteins were expressed using the Bac-to-Bac baculovirus expression system (Invitrogen) in High Five cells at 22 °C. One liter of High Five cells (2.0 × 10^6 cells mL^−1) cultured in the medium from Expression Systems was infected with 25 ml recombinant baculovirus and the media was collected after 72 h of infection. Secreted LRR proteins were purified using Ni-NTA (Novagen) and size-exclusion chromatography (Hiload 200, GE Healthcare) in buffer containing 10 mM Bis-Tris pH 6.0 and 100 mM NaCl. The His-SUMO tag of the AtLURE proteins was removed by Prescission Protease at 4 °C overnight in buffer containing 25 mM Tris pH 8.0 and 150 mM NaCl. […]

[5] = test system: prk6 pollen tubes transformed with PRK6 of wild-type; assay: Wavy assay, prk6 pollen tubes transformed with wild-type PRK6; type: cell-based, Arabidopsis; conditions: 250 nM wild-type AtLURE1.2 in medium
Procedure: as §1, §2

B1: AtLURE1.2: mature form of AtLURE1.2 (residues 20–90), defensin-like cysteine-rich peptide expressed in insect cells (protein)
chain: TLINGSSDEERTYSFSPTTSPFDPRSLNQELKIGRIGYCFDCARACMRRGKYIRTCSFERKLCRCSISDIK
modifications: left off: His6, N-terminal, cleaved | SUMO, N-terminal, cleaved
notes: mature form of AtLURE1.2 (residues 20–90), defensin-like cysteine-rich peptide expressed in insect cells
Question: Which results are given for B1?
Answer: wavy and branched pollen tube behavior [1]: branched behavior is not observed; also recorded: greatly compromised; pollen tube reorientation toward AtLURE1.2 [2]: completely abolished; responsiveness of pollen tubes to AtLURE1.2 [3]: little effect; Kd [4]: ~3000 nM; wavy and branched pollen tube behavior [5]: severe wavy and branched behavior
